From patent US20140087995A1 (published 2014)
Numbered stars: 1 amine (or outer) side, 2 acyl side, 3 side chain; on linkers, the order of the positions; unused ones are H or OH. Bridge positions count the residues as written; N and C are the ends. Side chains are listed from the residue outwards. Ends that are not written are not given here. * marks the point of attachment. C20 diacid = O=C(O)CCCCCCCCCCCCCCCCCCC(=O)*; γGlu = O=C(O)[C@H](CCC(=O)[*:2])N[*:1]; AEEA = NCCOCCOCC(=O)O

T1: rat calcitonin receptor (rat, UniProt P32214 25-516)
T1 construct: whole, on cells; Membranes prepared from transiently transfected BHK tk'ts 13 cells (Assay VIII); also called rCTR; rCT
T1 sequence (looked up): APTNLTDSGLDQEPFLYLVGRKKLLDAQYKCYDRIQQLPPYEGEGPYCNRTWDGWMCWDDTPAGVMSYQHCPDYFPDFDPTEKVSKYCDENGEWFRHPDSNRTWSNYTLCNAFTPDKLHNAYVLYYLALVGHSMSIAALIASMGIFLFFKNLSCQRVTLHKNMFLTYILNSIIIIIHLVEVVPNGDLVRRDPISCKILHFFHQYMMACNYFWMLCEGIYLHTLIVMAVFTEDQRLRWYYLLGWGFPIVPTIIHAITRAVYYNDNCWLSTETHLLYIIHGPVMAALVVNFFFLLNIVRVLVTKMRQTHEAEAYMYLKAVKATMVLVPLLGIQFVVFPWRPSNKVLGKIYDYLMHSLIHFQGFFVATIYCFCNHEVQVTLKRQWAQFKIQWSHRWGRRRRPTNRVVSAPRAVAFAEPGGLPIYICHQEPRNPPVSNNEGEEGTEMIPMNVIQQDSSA

T2: human calcitonin receptor (human, UniProt P30988 25-474)
T2 construct: whole, on cells; Membranes prepared from a stably transfected BHK cell line (Assay VII); also called hCTR; hCT
T2 sequence (looked up): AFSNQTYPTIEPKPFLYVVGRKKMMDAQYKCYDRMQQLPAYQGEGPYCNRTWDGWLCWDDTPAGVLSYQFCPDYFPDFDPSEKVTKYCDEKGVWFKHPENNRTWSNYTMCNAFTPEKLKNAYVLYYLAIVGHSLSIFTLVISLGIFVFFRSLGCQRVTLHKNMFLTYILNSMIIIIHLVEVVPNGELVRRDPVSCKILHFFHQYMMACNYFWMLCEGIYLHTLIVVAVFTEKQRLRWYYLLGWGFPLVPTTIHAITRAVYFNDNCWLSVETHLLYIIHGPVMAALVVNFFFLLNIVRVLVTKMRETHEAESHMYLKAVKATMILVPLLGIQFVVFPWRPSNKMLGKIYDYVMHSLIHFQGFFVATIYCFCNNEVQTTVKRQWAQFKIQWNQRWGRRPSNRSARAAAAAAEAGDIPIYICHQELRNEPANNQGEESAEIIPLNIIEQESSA

T3: rat amylin receptor (rat calcitonin receptor + rat RAMP 3) (rat, UniProt P32214 25-516; Q9JJ73 23-147)
T3 construct: whole, on cells; Membranes prepared from transiently transfected BHK tk'ts 13 cells (Assay VI); also called rAmylin-R; rAmylin
T3 sequence (looked up) 1: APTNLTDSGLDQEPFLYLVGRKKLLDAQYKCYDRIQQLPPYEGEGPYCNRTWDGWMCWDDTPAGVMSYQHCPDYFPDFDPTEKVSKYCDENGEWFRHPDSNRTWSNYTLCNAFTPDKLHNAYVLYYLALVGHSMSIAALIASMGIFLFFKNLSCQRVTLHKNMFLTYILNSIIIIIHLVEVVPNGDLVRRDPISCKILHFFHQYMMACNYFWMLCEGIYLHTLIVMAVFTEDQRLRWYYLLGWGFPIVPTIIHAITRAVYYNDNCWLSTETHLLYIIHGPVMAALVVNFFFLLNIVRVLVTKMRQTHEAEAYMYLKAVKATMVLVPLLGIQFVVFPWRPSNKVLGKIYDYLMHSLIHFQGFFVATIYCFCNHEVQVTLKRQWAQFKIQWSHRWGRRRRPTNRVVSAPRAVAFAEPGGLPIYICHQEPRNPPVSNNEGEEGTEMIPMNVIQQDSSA
T3 sequence (looked up) 2: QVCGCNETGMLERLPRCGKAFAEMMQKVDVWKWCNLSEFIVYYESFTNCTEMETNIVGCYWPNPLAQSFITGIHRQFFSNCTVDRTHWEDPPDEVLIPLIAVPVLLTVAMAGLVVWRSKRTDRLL


What was measured:
rat calcitonin receptor [1] = molecular target: T1, rat calcitonin receptor; test: ratio of binding IC50s: rat calcitonin receptor / rat amylin receptor (reference)
[2] = molecular target: T2, human calcitonin receptor; test: ratio of binding IC50s: human calcitonin receptor / human amylin receptor (reference)
Summary of the method: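 Membranes (35 ng/μL final) + SPA beads, 50 mM Hepes pH 7.4 buffer with 1 mM CaCl2, 5 mM MgCl₂, 0.1% OA, 0.02% Tween20; 120 min, 25° C, shaking; centrifuged, counted; IC₅₀ by one-site binding competition.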

rat calcitonin receptor [3] = molecular target: T1, rat calcitonin receptor; test: SPA competition vs 125I-calcitonin, membranes of BHK cells with rat calcitonin receptor (Assay VIII)
[4] = molecular target: T3, rat amylin receptor (rat calcitonin …); test: SPA competition vs 125I-rat amylin, membranes of BHK cells with rat calcitonin receptor + rat RAMP3 (Assay VI)

Row | Binder | Ratio rCT/rAmylin binding (rat calcitonin receptor [1]) | Ratio hCT/hAmylin binding [2] | IC50 (rat calcitonin receptor [3]) [nM] | IC50 [4] [nM]
1 | K([γGlu-γGlu-C20 diacid])CNTATCATQRLAHFLRHSSPNFGAIPSSTNVGSNTY-NH2 (disulfide 2-7; N-terminus assumed; SMILES CC[C@H](C)[C@H](NC(=O)[C@H](C)NC(=O)CNC(=O)[C@H](Cc1ccccc1)NC(=O)[C@H](CC(N)=O)NC(=O)[C@@H]1CCCN1C(=O)[C@H](CO)NC(=O)[C@H](CO)NC(=O)[C@H](Cc1c[nH]cn1)NC(=O)[C@H](CCCNC(=N)N)NC(=O)[C@H](CC(C)C)NC(=O)[C@H](Cc1ccccc1)NC(=O)[C@H](Cc1c[nH]cn1)NC(=O)[C@H](C)NC(=O)[C@H](CC(C)C)NC(=O)[C@H](CCCNC(=N)N)NC(=O)[C@H](CCC(N)=O)NC(=O)[C@@H](NC(=O)[C@H](C)NC(=O)[C@@H]1CSSC[C@H](NC(=O)[C@@H](N)CCCCNC(=O)CC[C@H](NC(=O)CC[C@H](NC(=O)CCCCCCCCCCCCCCCCCCC(=O)O)C(=O)O)C(=O)O)C(=O)N[C@@H](CC(N)=O)C(=O)N[C@@H]([C@@H](C)O)C(=O)N[C@@H](C)C(=O)N[C@@H]([C@@H](C)O)C(=O)N1)[C@@H](C)O)C(=O)N1CCC[C@H]1C(=O)N[C@@H](CO)C(=O)N[C@@H](CO)C(=O)N[C@H](C(=O)N[C@@H](CC(N)=O)C(=O)N[C@H](C(=O)NCC(=O)N[C@@H](CO)C(=O)N[C@@H](CC(N)=O)C(=O)N[C@H](C(=O)N[C@@H](Cc1ccc(O)cc1)C(N)=O)[C@@H](C)O)C(C)C)[C@@H](C)O, Analogue of human amylin; also called compound 92) | 156 | 145 | 104 | 0.668
2 | K([γGlu-C20 diacid])CNTATCATQRLAHFLRHSSPNFGAIPSSTNVGSNTY-NH2 (disulfide 2-7; N-terminus assumed; SMILES CC[C@H](C)[C@H](NC(=O)[C@H](C)NC(=O)CNC(=O)[C@H](Cc1ccccc1)NC(=O)[C@H](CC(N)=O)NC(=O)[C@@H]1CCCN1C(=O)[C@H](CO)NC(=O)[C@H](CO)NC(=O)[C@H](Cc1c[nH]cn1)NC(=O)[C@H](CCCNC(=N)N)NC(=O)[C@H](CC(C)C)NC(=O)[C@H](Cc1ccccc1)NC(=O)[C@H](Cc1c[nH]cn1)NC(=O)[C@H](C)NC(=O)[C@H](CC(C)C)NC(=O)[C@H](CCCNC(=N)N)NC(=O)[C@H](CCC(N)=O)NC(=O)[C@@H](NC(=O)[C@H](C)NC(=O)[C@@H]1CSSC[C@H](NC(=O)[C@@H](N)CCCCNC(=O)CC[C@H](NC(=O)CCCCCCCCCCCCCCCCCCC(=O)O)C(=O)O)C(=O)N[C@@H](CC(N)=O)C(=O)N[C@@H]([C@@H](C)O)C(=O)N[C@@H](C)C(=O)N[C@@H]([C@@H](C)O)C(=O)N1)[C@@H](C)O)C(=O)N1CCC[C@H]1C(=O)N[C@@H](CO)C(=O)N[C@@H](CO)C(=O)N[C@H](C(=O)N[C@@H](CC(N)=O)C(=O)N[C@H](C(=O)NCC(=O)N[C@@H](CO)C(=O)N[C@@H](CC(N)=O)C(=O)N[C@H](C(=O)N[C@@H](Cc1ccc(O)cc1)C(N)=O)[C@@H](C)O)C(C)C)[C@@H](C)O, Analogue of human amylin; also called compound 70) [N^ε1-[(4S)-4-carboxy-4-(19-carboxynonadecanoylamino)butanoyl]-[His14,Arg17,Pro21,Pro27]-h-amylin] | 96.5 | 60.8 | 34.2 | 0.355
3 | K([γGlu-γGlu-C20 diacid])CNTATCATQRLAEFLRHSSPNFGAIPSSTNVGSRTY-NH2 (disulfide 2-7; N-terminus assumed; SMILES CC[C@H](C)[C@H](NC(=O)[C@H](C)NC(=O)CNC(=O)[C@H](Cc1ccccc1)NC(=O)[C@H](CC(N)=O)NC(=O)[C@@H]1CCCN1C(=O)[C@H](CO)NC(=O)[C@H](CO)NC(=O)[C@H](Cc1c[nH]cn1)NC(=O)[C@H](CCCNC(=N)N)NC(=O)[C@H](CC(C)C)NC(=O)[C@H](Cc1ccccc1)NC(=O)[C@H](CCC(=O)O)NC(=O)[C@H](C)NC(=O)[C@H](CC(C)C)NC(=O)[C@H](CCCNC(=N)N)NC(=O)[C@H](CCC(N)=O)NC(=O)[C@@H](NC(=O)[C@H](C)NC(=O)[C@@H]1CSSC[C@H](NC(=O)[C@@H](N)CCCCNC(=O)CC[C@H](NC(=O)CC[C@H](NC(=O)CCCCCCCCCCCCCCCCCCC(=O)O)C(=O)O)C(=O)O)C(=O)N[C@@H](CC(N)=O)C(=O)N[C@@H]([C@@H](C)O)C(=O)N[C@@H](C)C(=O)N[C@@H]([C@@H](C)O)C(=O)N1)[C@@H](C)O)C(=O)N1CCC[C@H]1C(=O)N[C@@H](CO)C(=O)N[C@@H](CO)C(=O)N[C@H](C(=O)N[C@@H](CC(N)=O)C(=O)N[C@H](C(=O)NCC(=O)N[C@@H](CO)C(=O)N[C@@H](CCCNC(=N)N)C(=O)N[C@H](C(=O)N[C@@H](Cc1ccc(O)cc1)C(N)=O)[C@@H](C)O)C(C)C)[C@@H](C)O, Analogue of human amylin; also called compound 89) | 48.8 | 28 | 115 | 2.37
4 | K([γGlu-γGlu-C20 diacid])CNTATCATQRLAEFLRHSSPNFGAIPSSTNVGHNTY-NH2 (disulfide 2-7; N-terminus assumed; SMILES CC[C@H](C)[C@H](NC(=O)[C@H](C)NC(=O)CNC(=O)[C@H](Cc1ccccc1)NC(=O)[C@H](CC(N)=O)NC(=O)[C@@H]1CCCN1C(=O)[C@H](CO)NC(=O)[C@H](CO)NC(=O)[C@H](Cc1c[nH]cn1)NC(=O)[C@H](CCCNC(=N)N)NC(=O)[C@H](CC(C)C)NC(=O)[C@H](Cc1ccccc1)NC(=O)[C@H](CCC(=O)O)NC(=O)[C@H](C)NC(=O)[C@H](CC(C)C)NC(=O)[C@H](CCCNC(=N)N)NC(=O)[C@H](CCC(N)=O)NC(=O)[C@@H](NC(=O)[C@H](C)NC(=O)[C@@H]1CSSC[C@H](NC(=O)[C@@H](N)CCCCNC(=O)CC[C@H](NC(=O)CC[C@H](NC(=O)CCCCCCCCCCCCCCCCCCC(=O)O)C(=O)O)C(=O)O)C(=O)N[C@@H](CC(N)=O)C(=O)N[C@@H]([C@@H](C)O)C(=O)N[C@@H](C)C(=O)N[C@@H]([C@@H](C)O)C(=O)N1)[C@@H](C)O)C(=O)N1CCC[C@H]1C(=O)N[C@@H](CO)C(=O)N[C@@H](CO)C(=O)N[C@H](C(=O)N[C@@H](CC(N)=O)C(=O)N[C@H](C(=O)NCC(=O)N[C@@H](Cc1c[nH]cn1)C(=O)N[C@@H](CC(N)=O)C(=O)N[C@H](C(=O)N[C@@H](Cc1ccc(O)cc1)C(N)=O)[C@@H](C)O)C(C)C)[C@@H](C)O, Analogue of human amylin; also called compound 87) | 45.6 | 35.6 | 94.5 | 2.07
5 | K([AEEA-C20 diacid])CNTATCATQRLAHFLRHSSPNFGAIPSSTNVGSNTY-NH2 (disulfide 2-7; N-terminus assumed; SMILES CC[C@H](C)[C@H](NC(=O)[C@H](C)NC(=O)CNC(=O)[C@H](Cc1ccccc1)NC(=O)[C@H](CC(N)=O)NC(=O)[C@@H]1CCCN1C(=O)[C@H](CO)NC(=O)[C@H](CO)NC(=O)[C@H](Cc1c[nH]cn1)NC(=O)[C@H](CCCNC(=N)N)NC(=O)[C@H](CC(C)C)NC(=O)[C@H](Cc1ccccc1)NC(=O)[C@H](Cc1c[nH]cn1)NC(=O)[C@H](C)NC(=O)[C@H](CC(C)C)NC(=O)[C@H](CCCNC(=N)N)NC(=O)[C@H](CCC(N)=O)NC(=O)[C@@H](NC(=O)[C@H](C)NC(=O)[C@@H]1CSSC[C@H](NC(=O)[C@@H](N)CCCCNC(=O)COCCOCCNC(=O)CCCCCCCCCCCCCCCCCCC(=O)O)C(=O)N[C@@H](CC(N)=O)C(=O)N[C@@H]([C@@H](C)O)C(=O)N[C@@H](C)C(=O)N[C@@H]([C@@H](C)O)C(=O)N1)[C@@H](C)O)C(=O)N1CCC[C@H]1C(=O)N[C@@H](CO)C(=O)N[C@@H](CO)C(=O)N[C@H](C(=O)N[C@@H](CC(N)=O)C(=O)N[C@H](C(=O)NCC(=O)N[C@@H](CO)C(=O)N[C@@H](CC(N)=O)C(=O)N[C@H](C(=O)N[C@@H](Cc1ccc(O)cc1)C(N)=O)[C@@H](C)O)C(C)C)[C@@H](C)O, Analogue of human amylin; also called compound 90) [N^ε1-[2-[2-[2-(19-carboxynonadecanoylamino)ethoxy]ethoxy]acetyl]-[His14,Arg17,Pro21,Pro27]-h-amylin] | 74.1 | 42.2 | 18.2 | 0.246
